Sequences and labels used below:
B1: GST-lamin B2 tail (residues 382-596) (domain or fragment)
chain: LSPSPSSRITISRATSSSSSSSGVGMSVGQGRGKRRRLETEDTSGSPSRASRVSSGSRLAQQTVATGVVNIDEVDPEGRFVRLKNSSDKDQSLGNWRIKRQVLEGEDIAYKFTPKYVLRAGQTVTVWAAGAGATHSPPSTLVWKSQTNWGPGESFRTALVSADGEEVAVKAAKHSSVQGRENGEEEEEEEAEFGEEDLFHQQGDPRTTSRGCRLM
modifications: 125I-labelled (Iodogen) where used as the radiolabelled ligand
B2: GST-lamin B1 tail (residues 391-588) (domain or fragment)
chain: LSPSPSSRVTVSRASSSRSVRTTRGKRKRVDVEESEASSSVSISHSASATGNVCIEEIDVDGKFIRLKNTSEQDQPMGGWEMIRKIGDTSVSYKYTSRYVLKAGQTVTVWAANAGVTASPPTDLIWKNQNSWGTGEDVKVILKNSQGEEVAQRSTVFKTTIPEEEEEEEEEPIGVAVEEERFHQQGAPRASNKSCAIM
modifications: 125I-labelled (Iodogen) where used as the radiolabelled ligand

Here are results for three molecules from publication PMC2120604.

By Kd is commonly meant the constant that tells how readily two partners part at equilibrium. A low value points to a tighter complex.

For this experiment, the target named is rat liver chromatin fragments (rat (endogenous in liver)). Kind of experiment: radioligand binding.
On to “GST-lamin C tail (residues 389-572) (from UniProt P02545-2 389-572) (domain or fragment)”, for which the Kd worked out at 300 nM.
With B1 the figure was 230 nM; with B2, 120 nM.
